Laboratory results taken from PMC3145628, “A Rice Plastidial Nucleotide Sugar Epimerase Is Involved in Galactolipid Biosynthesis and Improves Photosynthetic Efficiency” (PLoS Genetics, 2011).

Substrate: O=c1ccn([C@@H]2O[C@H](COP(=O)(O)OP(=O)(O)O[C@H]3O[C@H](CO)[C@H](O)[C@H](O)[C@H]3O)[C@@H](O)[C@H]2O)c(=O)[nH]1
Assay: purified protein
Format: biochemical, Oryza sativa
Conditions: 30°C, 100 mM glycine buffer pH 8.7, 1 mM NAD+, UDP-Gal varied 0.4-3.2 mM

B1: PHD1 (PHOTO… …1) (Oryza sativa Japonica Group) (protein)
chain: DDTGVKMAGSDIVGKNDLLIVGPGVLGRLVAEKWQEEHPGCKVFGQTASTDHHNELSNIGIIPSLKGSTFPQKVPYVIFCAPPSRSDDYPGDVRVAASNWTGEGSFVFTSSTALYDCSDNELCNEDCPSVPIGRSPRTDVLLKAENVVLEAGGCVLRLAGLYKIDRGAHFFWLRKGTLDTRPDHIINQIHYEDAASLAIAIMKKGHRGRIFLGCDNKPLSRQEIMDSVNRSGKFDTKFQGFTGTDGPLGKKMENSRTRSEIGWEPKYPSFTEFLGLDS
notes: mature protein without putative N-terminal 62-aa chloroplast transit peptide (full length 340 aa); expressed in E. coli; pGEX-4T-1 (GST) in BL21(DE3), glutathione Sepharose purified (described for antibody production)
B1 gave a Km of 840 µM.
